Data published in publication PMC10872586 (Cell reports, 2023).
Substitutions are numbered along the chain they refer to.

B1: CR9114 gHC Fab VL A96S (Fab, V domains shown)
VH: QVQLVQSGAEVKKPGSSVKVSCKASGGTFSSYAISWVRQAPGQGLEWMGGIIPIFGTANYAQKFQGRVTITADKSTSTAYMELSSLRSEDTAVYYCARHGNYYYYYGMDVWGQGTTVTVSS
VL: SYVLTQPPAVSGTPGQRVTISCSGSDSNIGRRSVNWYQQFPGTAPKLLIYSNDQRPSVVPDRFSGSKSGTSASLAISGLQSEDEAEYYCAAWDDSLKGSVFGGGTQLTVL
notes: Kabat numbering; source: Expi293F, co-transfected, purified (CaptureSelect CH1-XL)
B2: CR9114 gHC Fab VL A96R (Fab, V domains shown)
VH: B1 VH
VL: B1 VL with S99R
notes: as for B1
B3: CR9114 gHC Fab VL W91Y (Fab, V domains shown)
VH: B1 VH
VL: B1 VL with W92Y, S99A
notes: as for B1
B4: CR9114 gHC Fab VL W91F (Fab, V domains shown)
VH: B1 VH
VL: B1 VL with W92F, S99A
notes: as for B1
B5: CR9114 gHC Fab VL A96V (Fab, V domains shown)
VH: B1 VH
VL: B1 VL with S99V
notes: as for B1
B6: CR9114 with germline heavy chain, Fab (Fab, V domains shown)
VH: B1 VH
VL: B1 VL with S99A
notes: also called CR9114 gHC; WT; source: Expi293F, co-transfected, purified (CaptureSelect CH1-XL)

Target: HA protein from H1N1 A/Solomon Islands/3/2006 (Influenza A virus (A/Solomon …, UniProt A7Y8I1, strain))
Experiment: BLI
Conditions: both partners purified

| Binder | Kd |
| --- | --- |
| B1 | 1.6 µM |
| B2 | 21.5 µM |
| B3 | 27.2 µM |
| B4 | 9.6 µM |
| B5 | 15.8 µM |

Target: mini-HA #4900 (Designed influenza HA stem #4900, …, stabilised)
Experiment: BLI
Conditions: both partners purified

| Binder | Kd |
| --- | --- |
| B6 | 6.2 µM |
| B1 | 1.9 µM |
| B2 | 13 µM |
| B3 | 45.7 µM |
| B4 | 9.7 µM |
| B5 | 3.8 µM |
